According to patent publication US20160031955A1 (INSERM INSTITUT NATIONAL DE LA SANT ET DE LA RECHERCHE M …, published 2016):

Molecular target: T1, endogenous AIF (apoptosis inducing factor) contained in human cell lysates (human, UniProt O95831 55-613, limits assumed)
T1 construct: Endogenous protein in cell lysate; also called AIF contained in the lysate of U2OS cells
Assay: co-immunoprecipitation from human cancer cell lysates

T1 sequence (O95831 55-613 limits assumed): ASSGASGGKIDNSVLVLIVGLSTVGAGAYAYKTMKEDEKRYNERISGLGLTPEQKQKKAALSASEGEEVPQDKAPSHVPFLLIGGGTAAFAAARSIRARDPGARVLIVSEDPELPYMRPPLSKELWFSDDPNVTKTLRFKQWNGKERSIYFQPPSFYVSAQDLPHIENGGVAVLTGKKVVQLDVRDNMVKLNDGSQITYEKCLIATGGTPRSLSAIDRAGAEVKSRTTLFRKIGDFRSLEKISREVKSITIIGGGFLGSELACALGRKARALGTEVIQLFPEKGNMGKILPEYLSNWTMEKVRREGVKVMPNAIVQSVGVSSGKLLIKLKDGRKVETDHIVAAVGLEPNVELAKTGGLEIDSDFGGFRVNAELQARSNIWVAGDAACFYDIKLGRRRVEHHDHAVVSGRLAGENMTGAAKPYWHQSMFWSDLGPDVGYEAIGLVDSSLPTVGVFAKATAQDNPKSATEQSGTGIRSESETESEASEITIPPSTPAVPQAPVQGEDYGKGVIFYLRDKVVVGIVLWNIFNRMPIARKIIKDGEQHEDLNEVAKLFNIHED

binding result: no binding
B1: CHCHD3 (other, human, UniProt Q9NX63 2-227, looked up)
chain: GGTTSTRRVTFEADENENITVVKGIRLSENVIDRMKESSPSGSKSQRYSGAYGASVSDEELKRRVAEELALEQAKKESEDQKRLKQAKELDRERAAANEQLTRAILRERICSEEERAKAKHLARQLEEKDRVLKKQDAFYKEQLARLEERSSEFYRVTTEQYQKAAEEVEAKFKRYESHPVCADLQAKILQCYRENTHQTLKCSALATQYMHCVNHAKQSMLEKGG
notes: also called a MIA40 family member
